The source of these data is US5326856A, “Bifunctional isothiocyanate derived thiocarbonyls as ligands for metal binding” (Cytogen Corporation, priority 1992, dated 1994).

Series [1] deals with activated platelets. The experiment in a line: Aggregometer assay. It is filed as cell-based.
Series [2] concerns clot. Briefly: Gamma camera thrombus imaging in rabbits. In kind it is in vivo, New Zealand White rabbits. The following applies: FIG. 8. How it is done: (§1) The specificity of uptake of Tc-99m labeled peptide […]-chelating agent A conjugate into rabbit thrombi was determined by directly comparing tissue uptake and images obtained in animals with an induced thrombus to those receiving a sham operation without induced thrombus.
Two groups of 3 rabbits were used. All animals were subjected to surgery to expose the superficial jugular vein as described in detail below. In the first group of animals, the jugular veins were clamped off and a silk thread was inserted into the jugular veins. These veins also received an injection of 10 units of bovine thrombin in 0.1 ml isotonic saline directly into the vein. […]
The peptide-chelating agent conjugate prepared as in Section 9, supra, was radiolabeled with Tc-99m as follows: Tc-99m was eluted from a molybdenum generator and adjusted to 40 mCi/ml with isotonic saline. […] After this incubation period the material was drawn into an appropriately labelled 5 ml syringe and a sample was analyzed by instant thin layer chromatography (ITLC) to determine radiochemical purity as described in Section 9, supra. This material was acceptable for injection into rabbits only if the radiochemical purity was ≥95% and the amount of radioactivity available for injection was within 20% of that required by this protocol (e.g., 4.8-7.3 mCi). […]

Series [3] concerns clot. The experiment in a line: Biodistribution by dissection in rabbits with induced thrombus. In kind it is in vivo, New Zealand White rabbits. The following applies: for 99M Tc / % ID/G (percent of injected dose per gram of tissue) / TISS:BLD / TISS:MUSC: 4 h after injection. How it is done: as §1
Two groups of 3 rabbits were used. All animals were subjected to surgery to expose the superficial jugular vein as described in detail below. In the first group of animals, the jugular veins were clamped off and a silk thread was inserted into the jugular veins. These veins also received an injection of 10 units of bovine thrombin in 0.1 ml isotonic saline directly into the vein. The second (sham control) group of animals was subjected to the same surgical procedures as the experimental group except that no silk was inserted into the veins of these animals and the veins received an injection of 0.1 ml isotonic saline only. Due to logistical difficulties in handling six animals at one time, the experiment was conducted in three parts, each part consisting of one sham and one thrombus-induced animal done in parallel on each of 3 days. Specific pathogen-free New Zealand White rabbits (2-2.6 kg) were used.
The model system of Collen et al. (1983, J. Clin. Invest. 71:368-376) was used (with minor modifications described below) to induce experimental thrombi in rabbits. The animals were anesthetized by intramuscular injection of 40 mg/kg ketamine-HC1 and 4 mg/kg acepromazine maleate. Just prior to surgery, the animals received 10 mg/kg sodium pentobarbital, which was also administered as needed during the course of the surgery. The neck area was shaved and swabbed with disinfectant. The jugular vein was exposed by making about a 5 cm paramedial incision, the vein was freed from tissues over about a 4 cm distance (up to the main bifurcation of the facial vein) and the side branches of the jugular were ligated. A 1-inch segment was clamped off with hemostats and, in the experimental (group 1) animals, a silk thread was placed longitudinally inside the vein and was tied off at each end. No suture was placed in the veins of sham control (group 2) animals. Ten (10) units of bovine thrombin in 0.1 ml of isotonic saline (or saline alone in sham control animals) was injected into the clamped vein segment using a 27 gauge needle. Thirty minutes later, the animals were given an intravenous injection (in the contralateral marginal ear vein) of a mixture of 2-7 μCi of Tc-99m labelled peptide-chelating agent conjugate.
The peptide-chelating agent conjugate prepared as in Section 9, supra, was radiolabeled with Tc-99m as follows: Tc-99m was eluted from a molybdenum generator and adjusted to 40 mCi/ml with isotonic saline. Fifty (50) mCi of this preparation was transferred to a Glucoscan vial (Dupont, Billerica, MA) and mixed. Six (6) mCi of Tc-99m/glucoscan mixture was then added to a vial containing 50 μg of the peptide-chelating agent conjugate and incubated for 1 h at room temperature. After this incubation period the material was drawn into an appropriately labelled 5 ml syringe and a sample was analyzed by instant thin layer chromatography (ITLC) to determine radiochemical purity as described in Section 9, supra. This material was acceptable for injection into rabbits only if the radiochemical purity was ≥95% and the amount of radioactivity available for injection was within 20% of that required by this protocol (e.g., 4.8-7.3 mCi).
All animals were dissected 4 h (240 min) after injection. A 3 ml blood sample was drawn, after which the animals were euthanized with an i.v. injection of T-61 euthanasia solution (American Hoechst, Sommerville, N.J.). The vein segment was surgically removed and the thrombus therein (if any) was isolated from the vein. A segment of the contralateral vein was also removed and a sample of muscle was obtained from an area of the neck distal to the surgical field. […]

As a reminder, the IC50 is the concentration needed to halve the response being measured. Lower therefore signals inhibition by little substance.

Ends that are not written are not given here. chelating agent A = 3,5-di-(1-trimethylammoniumacetyl)-4-thiosemicarbazidobenzoic acid, dichloride salt

The substance SYRGDVRGDF [reference compound] showed a 50% inhibitory concentration (IC50) in series [1] of 28.8 µM.
As for “Tc-99m-labeled SYRGDVRGDF-chelating agent A conjugate: peptide-chelating agent conjugate prepared as in Section 9, radiolabeled with Tc-99m (SYRGDVRGDF-NH2; not fully specified (N-terminus); also: chelating agent A conjugate, site not given here, Tc-99m labelled (metal complex))”, the “localization to clot in gamma camera imaging” value in series [2] (2 hours and 4 hours) is “localization of Tc-99m-labeled SYRGDVRGDF-chelating agent A conjugate to a clot”. Moreover, in series [2] (gamma camera image), the “blood pool accumulation, area of the head” value is “blood pool accumulation of peptide-chelating agent A, which is non-specific”. Moreover, in series [3] (Blood), the “99M Tc” value was determined as 318229 and the “% ID/G (percent of injected dose per gram of tissue)” value is 0.0399 % ID/G. Moreover, in series [3] (Clot (Target)), the “99M Tc” value was found to be 94319, the “% ID/G (percent of injected dose per gram of tissue)” value is recorded as 0.3312 % ID/G, the “TISS:BLD” value is 28.30 and the “TISS:MUSC” value came out at 27.83. Moreover, in series [3] (Muscle), the “99M Tc” value is 22369 and the “% ID/G (percent of injected dose per gram of tissue)” value came to 0.0119 % ID/G. Moreover, in series [3] (Vessel), the “99M Tc” value was determined as 95629, the “% ID/G (percent of injected dose per gram of tissue)” value was found to be 0.0870 % ID/G, the “TISS:BLD” value came out at 2.18 and the “TISS:MUSC” value amounted to 7.28. Moreover, the “clot % ID/G relative to blood” value in series [3] (clot vs blood) is reported as 8 fold. For the same substance, in series [3] (clot vs blood vessel), the “clot % ID/G relative to the blood vessel” value is on record as 4 fold. In series [3] (clot, percent of injected dose per gram of tissue), the “% ID/G for the clot” value came out at 0.33%.
On to “Chelating Agent A-NH-SYRGDVRGDF: chelating agent A coupled with SYRGDVRGDF-NH2 peptide ({chelating agent A}-SYRGDVRGDF-NH2)”, for which half-maximal inhibition in series [1] (IC50) required 19.3 µM. For the same substance, the “clot-binding potency relative to the native peptide” value in series [1] (relative to native peptide) is on record as “full or even enhanced clot-binding potency”.
